Data: patent US9029508 (dated 2015)
Values joined by “and” are separate entries in the source; they are usually repeats but may differ in a detail not shown here. Identical values can stand only once.

T1: VEGF (human, UniProt P15692)
T1 chain: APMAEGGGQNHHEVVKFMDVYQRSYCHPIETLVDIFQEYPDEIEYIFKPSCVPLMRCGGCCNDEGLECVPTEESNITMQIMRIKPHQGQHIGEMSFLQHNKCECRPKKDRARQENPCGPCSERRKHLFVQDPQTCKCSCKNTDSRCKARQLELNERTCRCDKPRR

T2: PlGF (human, UniProt P49763)
T2 chain: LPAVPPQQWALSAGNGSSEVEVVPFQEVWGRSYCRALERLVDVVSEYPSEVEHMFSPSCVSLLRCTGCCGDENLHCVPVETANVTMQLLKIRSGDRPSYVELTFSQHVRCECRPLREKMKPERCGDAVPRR

B1: DVD300 ErbB3 arm (antibody, V domains shown)
VH: QVQLQQWGAGLLKPSETLSLTCAVYGGSFSGYYWSWIRQPPGKGLEWIGEINHSGSTNYNPSLKSRVTISVETSKNQFSLKLSSVTAADTAVYYCARDKWTWYFDLWGRGTLVTVSS
VL: not shown
modifications: DVD-Ig inner
B2: DVD463 VEGF arm (antibody, V domains shown)
VH: EVQLVESGGGLVQPGGSLRLSCAASGFTINASWIHWVRQAPGKGLEWVGAIYPYSGYTNYADSVKGRFTISADTSKNTAYLQMNSLRAEDTAVYYCARWGHSTSPWAMDYWGQGTLVTVSS
VL: DIQMTQSPSSLSASVGDRVTITCRASQVIRRSLAWYQQKPGKAPKLLIYAASNLASGVPSRFSGSGSGTDFTLTISSLQPEDFATYYCQQSNTSPLTFGQGTKVEIKR
B3: DVD491 VEGF arm (antibody, V domains shown)
VH: B2 VH
VL: B2 VL
B4: DVD509 VEGF arm (antibody, V domains shown)
VH: B2 VH
VL: B2 VL
B5: DVD510 VEGF arm (antibody, V domains shown)
VH: B2 VH
VL: B2 VL
B6: DVD458 VEGF arm (antibody, V domains shown)
VH: B2 VH
VL: B2 VL
B7: DVD516 VEGF arm (antibody, V domains shown)
VH: B2 VH
VL: B2 VL
B8: DVD473 VEGF arm (antibody, V domains shown)
VH: B2 VH
VL: B2 VL
B9: DVD451 VEGF arm (antibody, V domains shown)
VH: B2 VH
VL: B2 VL
B10: DVD446 VEGF arm (antibody, V domains shown)
VH: B2 VH
VL: B2 VL
B11: DVD503 VEGF arm (antibody, V domains shown)
VH: B2 VH
VL: B2 VL
B12: DVD464 VEGF arm (antibody, V domains shown)
VH: B2 VH
VL: B2 VL
B13: DVD497 VEGF arm (antibody, V domains shown)
VH: B2 VH
VL: B2 VL
B14: DVD474 VEGF arm (antibody, V domains shown)
VH: B2 VH
VL: B2 VL
B15: DVD479 VEGF arm (antibody, V domains shown)
VH: B2 VH
VL: B2 VL
B16: DVD492 VEGF arm (antibody, V domains shown)
VH: B2 VH
VL: B2 VL
B17: DVD445 VEGF arm (antibody, V domains shown)
VH: B2 VH
VL: B2 VL
B18: DVD515 VEGF arm (antibody, V domains shown)
VH: B2 VH
VL: B2 VL
B19: DVD504 VEGF arm (antibody, V domains shown)
VH: B2 VH
VL: B2 VL
B20: DVD528 VEGF arm (antibody, V domains shown)
VH: B2 VH
VL: B2 VL
B21: DVD534 VEGF arm (antibody, V domains shown)
VH: B2 VH
VL: B2 VL
B22: DVD486 VEGF arm (antibody, V domains shown)
VH: B2 VH
VL: B2 VL
B23: DVD527 VEGF arm (antibody, V domains shown)
VH: B2 VH
VL: B2 VL
B24: DVD480 VEGF arm (antibody, V domains shown)
VH: B2 VH
VL: B2 VL
B25: DVD485 VEGF arm (antibody, V domains shown)
VH: B2 VH
VL: B2 VL
B26: DVD521 VEGF arm (antibody, V domains shown)
VH: B2 VH
VL: B2 VL
B27: DVD452 VEGF arm (antibody, V domains shown)
VH: B2 VH
VL: B2 VL
B28: DVD457 VEGF arm (antibody, V domains shown)
VH: B2 VH
VL: B2 VL
B29: DVD498 VEGF arm (antibody, V domains shown)
VH: B2 VH
VL: B2 VL
B30: DVD468 VEGF arm (antibody, V domains shown)
VH: B2 VH
VL: B2 VL
B31: DVD522 VEGF arm (antibody, V domains shown)
VH: B2 VH
VL: B2 VL
B32: DVD533 VEGF arm (antibody, V domains shown)
VH: B2 VH
VL: B2 VL
B33: DVD467 VEGF arm (antibody, V domains shown)
VH: B2 VH
VL: B2 VL
B34: AB047 (antibody, V domains shown)
VH: QVQLQQSGAELVKPGASVKISCKASGYTFTDYYINWVKLAPGQGLEWIGWIYPGSGNTKYNEKFKGKATLTIDTSSSTAYMQLSSLTSEDTAVYFCVRDSPFFDYWGQGTLLTVSS
VL: DIVLTQSPDSLAVSLGERVTMNCKSSQSLLNSGMRKSFLAWYQQKPGQSPKLLIYWASTRESGVPDRFTGSGSGTDFTLTISSVQAEDVAVYYCKQSYHLFTFGSGTKLEIKR
B35: DVD260 PlGF arm (antibody, V domains shown)
VH: B34 VH
VL: B34 VL
modifications: DVD-Ig outer
B36: DVD257 PlGF arm (antibody, V domains shown)
VH: B34 VH
VL: B34 VL
modifications: DVD-Ig inner
B37: DVD258 PlGF arm (antibody, V domains shown)
VH: B34 VH
VL: B34 VL
modifications: DVD-Ig outer
B38: DVD259 PlGF arm (antibody, V domains shown)
VH: B34 VH
VL: B34 VL
modifications: DVD-Ig inner
B39: DVD026 HGF arm (antibody, V domains shown)
VH: QVQLVESGGGLVKPGGSLRLSCAASGFTFSDYYMSWIRQAPGKGLEWVSYISSSGSTIYYADSVKGRFTISRDNAKNSLYLQMNSLRAEDTAVYYCARDEYNSGWYVLFDYWGQGTLVTVSS
VL: DIQMTQSPSSVSASVGDRVTITCRASQGISSWLAWYQQKPGKAPNLLIYEASSLQSGVPSRFGGSGSGTDFTLTISSLQPEDFATYYCQQANGFPWTFGQGTKVEIKR
modifications: DVD-Ig outer
B40: DVD046 HGF arm (antibody, V domains shown)
VH: B39 VH
VL: B39 VL
modifications: DVD-Ig outer

molecular target: ErbB3 (human, UniProt P21860); experiment: ELISA

Row | Binder | EC50
1 | B1 | 7630 nM

Molecular target: T1, VEGF
Experiment: ELISA

Row | Binder | EC50
2 | B2 | 1730 nM
3 | B3 | 1250 nM
4 | B4 | 121 nM
5 | B5 | 23.9 nM
6 | B6 | 21.5 nM
7 | B7 | 24.6 nM
8 | B8 | 388 nM
9 | B9 | 2400 nM
10 | B10 | 14.4 nM
11 | B11 | 430 nM
12 | B12 | 19.3 nM
13 | B13 | 858 nM
14 | B14 | 17.9 nM
15 | B15 | 456 nM
16 | B16 | 8.42 nM
17 | B17 | 14500 nM

Row | Binder | EC50
18 | B18 | 3020 nM
19 | B19 | 16.7 nM
20 | B20 | 27.7 nM
21 | B21 | 23.6 nM
22 | B22 | 28 nM
23 | B23 | 2380 nM
24 | B24 | 23 nM
25 | B25 | 121 nM
26 | B26 | 655 nM
27 | B27 | 17.8 nM
28 | B28 | 1480 nM
29 | B29 | 30.6 nM
30 | B30 | 25.6 nM
31 | B31 | 23.5 nM
32 | B32 | 1260 nM
33 | B33 | 1810 nM

Molecular target: T2, PlGF
Experiment: SPR

Row | Binder | Kd
34 | B34 | 0.0285 nM and 0.0284 nM
35 | B35 | 0.012 nM
36 | B36 | 0.367 nM
37 | B37 | < 0.254 nM
38 | B38 | 0.33 nM

molecular target: T3, HGF (human, UniProt P14210); experiment: ELISA
T3 sequence (P14210 32-728): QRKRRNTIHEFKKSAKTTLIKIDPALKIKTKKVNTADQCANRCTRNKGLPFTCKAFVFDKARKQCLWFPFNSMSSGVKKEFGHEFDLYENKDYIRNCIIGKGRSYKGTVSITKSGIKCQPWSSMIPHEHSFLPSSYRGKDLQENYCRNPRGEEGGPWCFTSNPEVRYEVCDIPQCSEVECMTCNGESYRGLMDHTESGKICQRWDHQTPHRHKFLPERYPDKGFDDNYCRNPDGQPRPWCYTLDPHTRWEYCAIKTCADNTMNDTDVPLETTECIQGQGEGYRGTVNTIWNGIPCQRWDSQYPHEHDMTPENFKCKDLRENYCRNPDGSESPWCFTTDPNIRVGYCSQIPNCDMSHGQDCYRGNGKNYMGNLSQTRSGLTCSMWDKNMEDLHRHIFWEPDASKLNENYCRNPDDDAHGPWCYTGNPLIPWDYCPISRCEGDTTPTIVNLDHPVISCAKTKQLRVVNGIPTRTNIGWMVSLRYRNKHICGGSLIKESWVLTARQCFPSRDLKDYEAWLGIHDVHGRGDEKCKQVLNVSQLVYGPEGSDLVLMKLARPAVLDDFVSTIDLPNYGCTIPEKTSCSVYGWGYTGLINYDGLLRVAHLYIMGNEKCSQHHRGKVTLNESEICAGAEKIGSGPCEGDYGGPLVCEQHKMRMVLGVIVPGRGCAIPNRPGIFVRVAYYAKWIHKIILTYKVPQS

Row | Binder | EC50
39 | B39 | 0.33 nM
40 | B40 | 0.5 nM

Molecular target: T2, PlGF
Experiment: ELISA

Row | Binder | EC50
41 | B34 | 0.2 nM
42 | B35 | 0.12 nM
43 | B36 | 2 nM
44 | B37 | 0.08 nM
45 | B38 | 1.3 nM

molecular target: T3, HGF; experiment: SPR

Row | Binder | Kd
46 | B39 | 0.0159 nM
47 | B40 | < 0.0236 nM
